Target: BCMA:APRIL 1:1 (human) (UniProt Q02223)
Assay: BLI, His-tagged human BCMA on tip, then human APRIL 3000 nM, then IgG; KD cell N/A, R2 0.0887

BCMA:APRIL 1:1 (human), sequence (Q02223 1-54 limits assumed, chain 1 of 2): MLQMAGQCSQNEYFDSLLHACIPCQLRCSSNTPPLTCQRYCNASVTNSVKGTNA
BCMA:APRIL 1:1 (human), sequence (O75888 115-250 limits assumed, chain 2 of 2, further chain): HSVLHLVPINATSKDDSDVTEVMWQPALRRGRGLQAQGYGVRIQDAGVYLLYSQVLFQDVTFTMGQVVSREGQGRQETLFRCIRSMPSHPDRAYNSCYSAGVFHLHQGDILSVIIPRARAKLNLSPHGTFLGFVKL

- BCMA:APRIL 1:1 response: 0.18
Substance: J6M0 (antibody)
